Reference: the Human Domainome abundance scans (Beltran et al. 2025)
± gives the uncertainty stated by the source.

B1: Zinc finger homeobox protein 3, residues 2643 to 2698; numbered along this chain, Q15911 (parent)
chain: RLRTTITPEQLEILYQKYLLDSNPTRKMLDHIAHEVGLKKRVVQVWFQNTRARERK

Variants of: B1
Experiment: abundance fitness (aPCA) (normalised: wild type 0, dead -1); higher = more abundant; growth selection in yeast, the domain comes from the species named
Conditions: Homo sapiens

First: V43I
Second: V43L
The abundance fitness of the first is higher: -0.127 ± 0.15 for the first, -0.485 ± 0.097 for the second.

V43R and V43F are within error of each other in abundance fitness: -1.03 ± 0.11 for the first, -0.815 ± 0.28 for the second.

V43H and V43Y are within error of each other in abundance fitness: -0.973 ± 0.23 for the first, -0.807 ± 0.22 for the second.

V43Q and V43M are within error of each other in abundance fitness: -1 ± 0.16 for the first, -0.889 ± 0.15 for the second.

First: V43S
Second: V43T
The abundance fitness of the first is lower: -0.821 ± 0.11 for the first, -0.548 ± 0.11 for the second.

V43D and V43E are within error of each other in abundance fitness: -0.867 ± 0.15 for the first, -1.11 ± 0.14 for the second.

V43N and V43C are within error of each other in abundance fitness: -0.64 ± 0.2 for the first, -0.345 ± 0.15 for the second.

V43G and V43P are within error of each other in abundance fitness: -0.937 ± 0.11 for the first, -0.739 ± 0.14 for the second.

Compared with V43W, Q44S is higher in abundance fitness: -1.07 ± 0.18 for the first, -0.044 ± 0.097 for the second.

Going from Q44L to Q44E, the abundance fitness rises from -0.347 ± 0.082 to 0.283 ± 0.098.

Going from Q44D to Q44G, the abundance fitness falls from 0.481 ± 0.12 to 0.023 ± 0.091.

Going from Q44W to Q44H, the abundance fitness rises from -0.669 ± 0.14 to -0.038 ± 0.15.

Going from Q44R to Q44P, the abundance fitness falls from -0.331 ± 0.094 to -0.723 ± 0.12.

Q44T and Q44K are within error of each other in abundance fitness: -0.209 ± 0.098 for the first, -0.236 ± 0.12 for the second.

Q44V and Q44C are within error of each other in abundance fitness: -0.179 ± 0.085 for the first, -0.193 ± 0.17 for the second.

Q44M and Q44Y are within error of each other in abundance fitness: -0.164 ± 0.1 for the first, -0.114 ± 0.12 for the second.

Going from Q44A to Q44I, the abundance fitness falls from 0 ± 0.082 to -0.286 ± 0.13.

Going from V42F to V42P, the abundance fitness falls from -0.47 ± 0.17 to -0.932 ± 0.16.

V42T and V42D are within error of each other in abundance fitness: 0.037 ± 0.11 for the first, 0.226 ± 0.13 for the second.

Going from V42W to V42Q, the abundance fitness falls from -0.048 ± 0.1 to -0.372 ± 0.14.

First: V42S
Second: V42M
The abundance fitness of the first is lower: -0.327 ± 0.092 for the first, -0.068 ± 0.11 for the second.

V42Y and V42K are within error of each other in abundance fitness: -0.021 ± 0.15 for the first, 0.16 ± 0.15 for the second.

Compared with V42R, V42C is higher in abundance fitness: -0.44 ± 0.091 for the first, -0.021 ± 0.12 for the second.

V42H and V42G are within error of each other in abundance fitness: -0.288 ± 0.17 for the first, -0.43 ± 0.081 for the second.

V42A and V42L are within error of each other in abundance fitness: -0.123 ± 0.095 for the first, -0.03 ± 0.087 for the second.

Compared with V42E, V42N is lower in abundance fitness: 0.387 ± 0.095 for the first, -0.02 ± 0.14 for the second.

Going from V42I to F47K, the abundance fitness falls from -0.073 ± 0.12 to -0.812 ± 0.21.

F47T and F47S are within error of each other in abundance fitness: -0.997 ± 0.19 for the first, -0.946 ± 0.14 for the second.

Going from F47Y to F47V, the abundance fitness falls from -0.388 ± 0.22 to -0.902 ± 0.14.

F47C and F47I are within error of each other in abundance fitness: -0.945 ± 0.17 for the first, -1.01 ± 0.25 for the second.

F47A and F47N are within error of each other in abundance fitness: -0.904 ± 0.12 for the first, -0.835 ± 0.27 for the second.

Compared with F47W, F47L is lower in abundance fitness: -0.106 ± 0.095 for the first, -0.639 ± 0.098 for the second.

F47D and F47H are within error of each other in abundance fitness: -0.833 ± 0.23 for the first, -1.09 ± 0.32 for the second.

Going from F47R to F47M, the abundance fitness rises from -0.757 ± 0.095 to -0.522 ± 0.13.

F47Q and F47P are within error of each other in abundance fitness: -0.887 ± 0.16 for the first, -1.04 ± 0.21 for the second.

Going from F47E to V45Q, the abundance fitness rises from -0.736 ± 0.15 to -0.016 ± 0.11.

First: V45C
Second: V45F
The abundance fitness of the first is lower: -0.329 ± 0.12 for the first, -0.028 ± 0.15 for the second.

V45H and V45M are within error of each other in abundance fitness: -0.001 ± 0.15 for the first, -0.005 ± 0.1 for the second.

V45S and V45A are within error of each other in abundance fitness: -0.359 ± 0.097 for the first, -0.365 ± 0.096 for the second.

First: V45N
Second: V45I
The abundance fitness of the first is lower: -0.489 ± 0.17 for the first, 0.158 ± 0.11 for the second.

Compared with V45T, V45P is lower in abundance fitness: -0.24 ± 0.11 for the first, -0.764 ± 0.14 for the second.

Compared with V45E, V45G is lower in abundance fitness: 0.452 ± 0.097 for the first, -0.213 ± 0.076 for the second.

First: V45Y
Second: V45R
The abundance fitness of the first is higher: -0.263 ± 0.14 for the first, -0.561 ± 0.084 for the second.

Going from V45L to V45K, the abundance fitness falls from 0.122 ± 0.084 to -0.399 ± 0.12.

Compared with V45W, W46H is lower in abundance fitness: -0.317 ± 0.11 for the first, -0.897 ± 0.31 for the second.

W46M and W46G are within error of each other in abundance fitness: -0.956 ± 0.2 for the first, -0.792 ± 0.1 for the second.

W46Q and W46I are within error of each other in abundance fitness: -0.829 ± 0.16 for the first, -1.03 ± 0.38 for the second.

W46N and W46D are within error of each other in abundance fitness: -0.902 ± 0.37 for the first, -0.815 ± 0.2 for the second.

Going from W46A to W46T, the abundance fitness falls from -0.482 ± 0.12 to -0.865 ± 0.22.

W46Y and W46R are within error of each other in abundance fitness: -0.261 ± 0.34 for the first, -0.678 ± 0.094 for the second.

W46S and W46L are within error of each other in abundance fitness: -0.867 ± 0.14 for the first, -0.758 ± 0.12 for the second.

W46P and W46E are within error of each other in abundance fitness: -0.891 ± 0.17 for the first, -1.08 ± 0.18 for the second.

W46F and N49G are within error of each other in abundance fitness: -0.462 ± 0.3 for the first, -0.234 ± 0.078 for the second.

First: N49M
Second: N49D
The abundance fitness of the first is lower: -0.331 ± 0.15 for the first, 0.172 ± 0.15 for the second.

N49L and N49C are within error of each other in abundance fitness: -0.334 ± 0.099 for the first, -0.496 ± 0.12 for the second.

N49H and N49A are within error of each other in abundance fitness: -0.412 ± 0.24 for the first, -0.2 ± 0.093 for the second.

N49K and N49I are within error of each other in abundance fitness: 0.011 ± 0.12 for the first, -0.267 ± 0.17 for the second.

Going from N49E to N49F, the abundance fitness falls from 0.406 ± 0.11 to -0.531 ± 0.18.

K40R and K40D are within error of each other in abundance fitness: -0.064 ± 0.082 for the first, 0.006 ± 0.16 for the second.

K40N and K40W are within error of each other in abundance fitness: 0.238 ± 0.17 for the first, 0.212 ± 0.11 for the second.

K40P and K40Y are within error of each other in abundance fitness: 0.258 ± 0.1 for the first, 0.16 ± 0.18 for the second.

First: K40S
Second: K40G
The abundance fitness of the first is higher: 0.237 ± 0.092 for the first, 0.04 ± 0.079 for the second.

K40I and K40H are within error of each other in abundance fitness: 0.093 ± 0.17 for the first, -0.049 ± 0.16 for the second.

K40V and K40M are within error of each other in abundance fitness: 0.161 ± 0.079 for the first, 0.192 ± 0.12 for the second.

Going from K40C to K40T, the abundance fitness rises from -0.195 ± 0.14 to 0.355 ± 0.1.

K40L and Q48E are within error of each other in abundance fitness: 0.283 ± 0.09 for the first, 0.404 ± 0.12 for the second.

Q48G and Q48R are within error of each other in abundance fitness: -0.164 ± 0.075 for the first, -0.204 ± 0.078 for the second.

Compared with Q48D, Q48C is lower in abundance fitness: 0.505 ± 0.2 for the first, -0.189 ± 0.14 for the second.

Q48W and Q48L are within error of each other in abundance fitness: -0.217 ± 0.091 for the first, -0.268 ± 0.11 for the second.

First: Q48K
Second: Q48I
The abundance fitness of the first is higher: 0.096 ± 0.13 for the first, -0.687 ± 0.32 for the second.

First: Q48A
Second: Q48V
The abundance fitness of the first is higher: 0.122 ± 0.12 for the first, -0.147 ± 0.1 for the second.

Compared with Q48P, Q48N is higher in abundance fitness: -0.615 ± 0.15 for the first, -0.21 ± 0.23 for the second.

Q48Y and Q48T are within error of each other in abundance fitness: -0.089 ± 0.21 for the first, 0.028 ± 0.15 for the second.

Going from Q48F to Q48H, the abundance fitness rises from -0.802 ± 0.24 to -0.108 ± 0.2.

First: R41S
Second: R41Y
The abundance fitness of the first is higher: 0.411 ± 0.1 for the first, -0.129 ± 0.24 for the second.

Compared with R41M, R41E is higher in abundance fitness: -0.078 ± 0.18 for the first, 0.475 ± 0.12 for the second.

R41A and R41L are within error of each other in abundance fitness: 0.159 ± 0.11 for the first, -0.001 ± 0.1 for the second.

R41T and R41D are within error of each other in abundance fitness: 0.514 ± 0.15 for the first, 0.773 ± 0.18 for the second.

R41F and R41P are within error of each other in abundance fitness: -0.203 ± 0.2 for the first, -0.144 ± 0.23 for the second.

R41K and R41I are within error of each other in abundance fitness: 0.297 ± 0.18 for the first, 0.544 ± 0.18 for the second.

R41C and R41G are within error of each other in abundance fitness: 0.256 ± 0.12 for the first, 0.353 ± 0.079 for the second.

R41W and R41N are within error of each other in abundance fitness: 0.055 ± 0.12 for the first, 0.2 ± 0.36 for the second.

Going from R41Q to R41V, the abundance fitness falls from 0.287 ± 0.15 to 0.041 ± 0.093.

Variant R41H has an abundance fitness of 0.031 ± 0.19.
